B1: EPB41L3 (parent)
chain: SDYISEFRFAPNHTKELEDKVIEL

Variants of: B1
Experiment: protein stability index of a GFP-peptide fusion (GPS, HEK-293T) (PSI 1-6); higher = more stable
Conditions: c terminus: a fixed tail appended
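Note: lentivirally expressed fusions sorted by FACS into six bins by GFP to DsRed ratio, PSI derived from sequencing read proportions per bin multiplied by bin number.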

Protein stability index: each site, then its substitutions
S5: C 1.97; D 3.8; E 3.79; F 1.74; G 1.8; H 2.15; I 2.02; K 2.75; L 1.92; M 1.27; N 2.22; P 2.24; Q 2.7; R 2.62; T 2.18; V 2.19; W 1.82; Y 1.66
E6: A 1.67; C 1.92; D 1.93; F 1.52; G 2.28; H 1.43; I 2.12; K 1.85; L 1.84; M 1.92; N 1.83; P 2.43; Q 2.02; R 2.13; S 2; T 1.82; V 2.06; W 2.23; Y 1.84
F7: A 4.4; C 4.2; D 4.89; E 4.96; G 4.91; H 4.26; I 3.94; K 4.38; L 3.6; M 4; N 4.96; P 4.75; Q 4.79; R 4.4; S 4.12; T 4.57; V 4.46; W 2.42; Y 3.71
R8: A 3.7; C 4.05; D 4.51; E 4.47; F 2.04; G 4.38; H 4.48; I 3.24; K 4.26; L 3.24; M 3.49; N 3.94; P 4.4; Q 4.1; S 4.3; T 3.99; V 3.39; W 3.17; Y 3.31
F9: A 4.79; C 3.93; D 4.97; E 4.97; G 4.6; H 4.41; I 3.83; K 4.29; L 4.09; M 4.03; N 4.59; P 4.76; Q 4.63; R 4.58; S 4.79; T 4.24; V 4.44; W 3.54; Y 2.25
A10: C 1.56; D 4.37; E 4.21; F 3.3; G 3.92; H 1.86; I 2.33; K 3.99; L 3.45; M 3; N 3.33; P 3.96; Q 2.35; R 3.54; S 2.61; T 2.05; V 1.84; W 2.96; Y 3.09
P11: A 2.68; C 2.12; D 4.29; E 4.36; F 2.16; G 2.44; H 1.88; I 2.49; K 2.3; L 2.11; M 2.65; N 2.26; Q 2.57; R 2.64; S 2.26; T 2.82; V 2.23; W 2.33; Y 1.8
N12: A 2.2; C 1.47; D 3.9; E 3.54; F 1.9; G 1.83; H 1.95; I 1.82; K 2.18; L 2.2; M 1.89; P 2.19; Q 2.35; R 1.43; S 2.21; T 2.2; V 2.23; W 1.5; Y 2.1
H13: A 2.84; C 2.19; D 3.71; E 3.3; F 1.92; G 2.16; I 2.28; K 2.29; L 2.31; M 2.06; N 2.36; P 1.99; Q 2.46; R 1.94; S 2.06; T 2.08; V 1.59; W 1.72; Y 2.35
T14: A 2.16; C 2.02; D 2.49; E 2.74; F 1.97; G 1.88; H 1.68; I 2.7; K 1.4; L 2.23; M 2.65; N 2.25; P 1.37; Q 2.55; R 2.08; S 1.76; V 2.42; W 2.18; Y 2.06
K15: A 1.9; C 2.25; D 2.49; E 3.46; F 2.15; G 2.1; H 1.97; I 1.9; L 1.75; M 2.25; N 2.12; P 2.29; Q 2.34; R 1.74; S 2.07; T 2.1; V 2.04; W 1.77; Y 1.63
E16: A 2.56; C 2.17; D 1.82; F 2.81; G 1.81; H 2.65; I 2.08; K 1.77; L 2.37; M 3.24; N 1.76; P 1.57; Q 2.3; R 2.66; S 2.42; T 1.54; V 1.89; W 2.07; Y 2.56
L17: A 1.87; C 2.05; D 2.51; E 2.32; F 2.86; G 1.97; H 1.84; I 2.37; K 2.07; M 2.47; N 2.17; P 1.96; Q 2.18; R 1.27; S 1.84; T 1.98; V 2.68; W 1.77; Y 2.59
E18: A 2.05; C 1.44; D 1.49; F 1.8; G 2.53; H 2.77; I 2.19; K 2.08; L 1.77; M 1.8; N 1.81; P 1.47; Q 2.42; R 2.34; S 2.32; T 1.73; V 2.07; W 1.56; Y 1.77
D19: A 1.49; C 2.02; E 1.77; F 3.65; G 2.06; H 1.86; I 2.71; K 1.89; L 2.69; M 2.03; N 1.79; P 2.19; Q 1.71; R 1.39; S 2.81; T 1.8; V 2.09; W 3.08; Y 1.36
K20: A 2.4; C 2.13; D 2.71; E 2.48; F 2.31; G 1.93; H 1.79; I 3.7; L 2.28; M 1.8; N 1.87; P 2.2; Q 1.89; R 1.83; S 2.3; T 1.68; V 2.02; W 1.4; Y 1.87
V21: A 2.31; C 1.88; D 2.96; E 2.54; F 3.22; G 2.37; H 1.85; I 2.22; K 2.15; L 2.48; M 3.45; N 2.38; P 1.94; Q 1.99; R 1.78; S 2.05; T 2.18; W 2.14; Y 2.14
I22: A 3.26; C 2.19; D 2.88; E 2.94; F 1.74; G 2.79; H 2.55; K 2.51; L 2.28; M 2.31; N 2.74; P 2.58
